The results in this text go back to patent US20210061922A1 (published 2021).

This assay concerns the target CD16a (UniProt P08637 17-208). The experiment in a line: SPR. A general note: In SPR one partner is held on a chip, and binding of the other changes the refractive index at the surface.

Chain of CD16a (P08637 17-208): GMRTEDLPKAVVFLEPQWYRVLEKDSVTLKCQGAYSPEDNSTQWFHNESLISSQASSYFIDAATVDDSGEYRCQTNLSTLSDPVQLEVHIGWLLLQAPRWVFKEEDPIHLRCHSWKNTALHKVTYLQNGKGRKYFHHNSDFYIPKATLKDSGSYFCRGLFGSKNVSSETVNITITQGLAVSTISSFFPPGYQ

B1: Anti-CD16 nanobody (VHH)
VHH: EVQLTESGGEDVQAGGSLRLSCSASGLTFSSYNMGWFRRAPGKEREFVASITWSGRDTFYADSVKGRFTISRDNAKNTVYLQMSSLKPEDTATYYCAANPWPVAAPRSGTYWGEGTQVTV
In turn, B1 displayed a Kd of 2.6 nM. This counts as single-digit nanomolar.

For orientation: Kd means the constant that tells how readily two partners part at equilibrium. High values mean weaker binding, low ones tighter binding.
